For 58 variants, abundance fitness results are on record in the Human Domainome abundance scans (Beltran et al. 2025).

± gives the uncertainty stated by the source.

B1: Cullin-9, residues 2234 to 2275; numbered along this chain, Q8IWT3 (parent)
chain: KRCPSCQAPIEKNEGCLHMTCAKCNHGFCWRCLKSWKPNHKD

The variants in the series derive from B1. The series is described as follows: abundance fitness (aPCA) (normalised: wild type 0, dead -1); higher = more abundant; growth selection in yeast, the domain comes from the species named. The note with it: Homo sapiens.
For the variant KRCPSCQAPIEKNEGCLHMTCAKCNHGFCWRCLKSWKPMHKD [N39M], the abundance fitness was -0.14 ± 0.13.

In the case of KRCPSCQAPIEKNEGCLHMTCAKCNHGFCWRCLKSWKPDHKD [N39D], the abundance fitness was 0.244 ± 0.11.

Turning to KRCPSCQAPIEKNEGCLHMTCAKCNHGFCWRCLKSWKPLHKD [N39L], the abundance fitness is 0.001 ± 0.078.

As for KRCPSCQAPIEKNEGCLHMTCAKCNHGFCWRCLKSWKPKHKD [N39K], the abundance fitness stood at 0.045 ± 0.14.

Regarding KRCPSCQAPIEKNEGCLHMTCAKCNHGFCWRCLKSWKPAHKD [N39A], the abundance fitness was determined as 0.017 ± 0.08.

Consider KRCPSCQAPIEKNEGCLHMTCAKCNHGFCWRCLKSWKPSHKD [N39S], for which the abundance fitness was 0.001 ± 0.12.

Take KRCPSCQAPIEKNEGCLHMTCAKCNHGFCWRCLKSWKPGHKD [N39G]: the abundance fitness is 0.203 ± 0.073.

Regarding KRCPSCQAPIEKNEGCLHMTCAKCNHGFCWRCLKSWKPFHKD [N39F], the abundance fitness was found to be 0.269 ± 0.26.

Regarding KRCPSCQAPIEKNEGCLHMTCAKCNHGFCWRCLKSWKPRHKD [N39R], the abundance fitness was -0.071 ± 0.078.

On to KRCPSCQAPIEKNEGCLHMTCAKCNHGFCWRCLKSWKPYHKD [N39Y], for which the abundance fitness was -0.384 ± 0.29.

For KRCPSCQAPIEKNEGCLHMTCAKCNHGFCWRCLKSWKPTHKD [N39T], the abundance fitness was found to be 0.16 ± 0.096.

As to KRCPSCQAPIEKNEGCLHMTCAKCNHGFCWRCLKSWKPHHKD [N39H], the abundance fitness was -0.377 ± 0.14.

On to KRCPSCQAPIEKNEGCLHMTCAKCNHGFCWRCLKSWKPCHKD [N39C], for which the abundance fitness is -0.093 ± 0.15.

Take KRCPSCQAPIEKNEGCLHMTCAKCNHGFCWRCLKSWKPWHKD [N39W]: the abundance fitness is -0.176 ± 0.087.

For the variant KRCPSCQAPIEKNEGCLHMTCAKCNHGFCWRCLKSWKMNHKD [P38M], the abundance fitness is -0.364 ± 0.2.

Turning to KRCPSCQAPIEKNEGCLHMTCAKCNHGFCWRCLKSWKHNHKD [P38H], the abundance fitness is -0.867 ± 0.34.

As to KRCPSCQAPIEKNEGCLHMTCAKCNHGFCWRCLKSWKRNHKD [P38R], the abundance fitness was -0.383 ± 0.077.

As for KRCPSCQAPIEKNEGCLHMTCAKCNHGFCWRCLKSWKTNHKD [P38T], the abundance fitness was -0.204 ± 0.19.

Take KRCPSCQAPIEKNEGCLHMTCAKCNHGFCWRCLKSWKQNHKD [P38Q]: the abundance fitness is -0.163 ± 0.13.

On to KRCPSCQAPIEKNEGCLHMTCAKCNHGFCWRCLKSWKANHKD [P38A], for which the abundance fitness is -0.114 ± 0.092.

For KRCPSCQAPIEKNEGCLHMTCAKCNHGFCWRCLKSWKENHKD [P38E], the abundance fitness was determined as 0.184 ± 0.11.

With KRCPSCQAPIEKNEGCLHMTCAKCNHGFCWRCLKSWKFNHKD [P38F], the abundance fitness turned out to be 0.042 ± 0.26.

In the case of KRCPSCQAPIEKNEGCLHMTCAKCNHGFCWRCLKSWKVNHKD [P38V], the abundance fitness is -0.212 ± 0.079.

As to KRCPSCQAPIEKNEGCLHMTCAKCNHGFCWRCLKSWKKNHKD [P38K], the abundance fitness is -0.379 ± 0.32.

With KRCPSCQAPIEKNEGCLHMTCAKCNHGFCWRCLKSWKLNHKD [P38L], the abundance fitness was -0.178 ± 0.11.

In the case of KRCPSCQAPIEKNEGCLHMTCAKCNHGFCWRCLKSWKSNHKD [P38S], the abundance fitness is -0.26 ± 0.1.

As to KRCPSCQAPIEKNEGCLHMTCAKCNHGFCWRCLKSWKDNHKD [P38D], the abundance fitness was -0.553 ± 0.28.

As for KRCPSCQAPIEKNEGCLHMTCAKCNHGFCWRCLKSWKCNHKD [P38C], the abundance fitness was -0.695 ± 0.19.

KRCPSCQAPIEKNEGCLHMTCAKCNHGFCWRCLKSWKPNCKD [H40C]: the abundance fitness was -0.24 ± 0.14.

For KRCPSCQAPIEKNEGCLHMTCAKCNHGFCWRCLKSWKPNDKD [H40D], the abundance fitness was 0.111 ± 0.25.

Turning to KRCPSCQAPIEKNEGCLHMTCAKCNHGFCWRCLKSWKPNPKD [H40P], the abundance fitness was -0.091 ± 0.11.

Regarding KRCPSCQAPIEKNEGCLHMTCAKCNHGFCWRCLKSWKPNKKD [H40K], the abundance fitness was -0.319 ± 0.15.

In the case of KRCPSCQAPIEKNEGCLHMTCAKCNHGFCWRCLKSWKPNSKD [H40S], the abundance fitness was found to be 0.066 ± 0.11.

For KRCPSCQAPIEKNEGCLHMTCAKCNHGFCWRCLKSWKPNRKD [H40R], the abundance fitness is -0.283 ± 0.087.

Regarding KRCPSCQAPIEKNEGCLHMTCAKCNHGFCWRCLKSWKPNMKD [H40M], the abundance fitness was determined as 0.13 ± 0.1.

As to KRCPSCQAPIEKNEGCLHMTCAKCNHGFCWRCLKSWKPNTKD [H40T], the abundance fitness was -0.359 ± 0.13.

With KRCPSCQAPIEKNEGCLHMTCAKCNHGFCWRCLKSWKPNAKD [H40A], the abundance fitness worked out at 0.05 ± 0.077.

With KRCPSCQAPIEKNEGCLHMTCAKCNHGFCWRCLKSWKPNEKD [H40E], the abundance fitness is 0.182 ± 0.11.

As to KRCPSCQAPIEKNEGCLHMTCAKCNHGFCWRCLKSWKPNGKD [H40G], the abundance fitness was -0.102 ± 0.073.

Turning to KRCPSCQAPIEKNEGCLHMTCAKCNHGFCWRCLKSWKPNVKD [H40V], the abundance fitness is 0.006 ± 0.086.

Regarding KRCPSCQAPIEKNEGCLHMTCAKCNHGFCWRCLKSWKPNYKD [H40Y], the abundance fitness was -0.451 ± 0.32.

For the variant KRCPSCQAPIEKNEGCLHMTCAKCNHGFCWRCLKSWKPNFKD [H40F], the abundance fitness is -0.089 ± 0.35.

As to KRCPSCQAPIEKNEGCLHMTCAKCNHGFCWRCLKSWKPNWKD [H40W], the abundance fitness was -0.427 ± 0.094.

With KRCPSCQAPIEKNEGCLHMTCAKCNHGFCWRCLKSWKPNQKD [H40Q], the abundance fitness was -0.123 ± 0.14.

Take KRCPSCQAPIEKNEGCLHMTCAKCNHGFCWRCLKSWKPNHKF [D42F]: the abundance fitness was -0.729 ± 0.24.

In the case of KRCPSCQAPIEKNEGCLHMTCAKCNHGFCWRCLKSWKPNHKM [D42M], the abundance fitness is -0.77 ± 0.37.

Regarding KRCPSCQAPIEKNEGCLHMTCAKCNHGFCWRCLKSWKPNHKT [D42T], the abundance fitness is -0.073 ± 0.14.

Take KRCPSCQAPIEKNEGCLHMTCAKCNHGFCWRCLKSWKPNHKV [D42V]: the abundance fitness is -0.359 ± 0.16.

KRCPSCQAPIEKNEGCLHMTCAKCNHGFCWRCLKSWKPNHKL [D42L]: the abundance fitness is -0.444 ± 0.15.

Consider KRCPSCQAPIEKNEGCLHMTCAKCNHGFCWRCLKSWKPNHKP [D42P], for which the abundance fitness is -0.158 ± 0.19.

On to KRCPSCQAPIEKNEGCLHMTCAKCNHGFCWRCLKSWKPNHKR [D42R], for which the abundance fitness was -0.951 ± 0.2.

Take KRCPSCQAPIEKNEGCLHMTCAKCNHGFCWRCLKSWKPNHKG [D42G]: the abundance fitness was -0.21 ± 0.11.

In the case of KRCPSCQAPIEKNEGCLHMTCAKCNHGFCWRCLKSWKPNHKA [D42A], the abundance fitness is -0.117 ± 0.12.

Take KRCPSCQAPIEKNEGCLHMTCAKCNHGFCWRCLKSWKPNHKE [D42E]: the abundance fitness was -0.09 ± 0.13.

With KRCPSCQAPIEKNEGCLHMTCAKCNHGFCWRCLKSWKPNHKC [D42C], the abundance fitness came out at 0.214 ± 0.12.

As for KRCPSCQAPIEKNEGCLHMTCAKCNHGFCWRCLKSWKPNHKW [D42W], the abundance fitness is -0.692 ± 0.26.

As for KRCPSCQAPIEKNEGCLHMTCAKCNHGFCWRCLKSWKPNHKK [D42K], the abundance fitness was -0.487 ± 0.37.

Turning to KRCPSCQAPIEKNEGCLHMTCAKCNHGFCWRCLKSWKPNHKS [D42S], the abundance fitness is -0.387 ± 0.13.
